Experimental data as given in patent publication US20070280939A1 (published 2007).

Target: T1, HLA-A2*0201 on T2 cells (human)
T1 construct: whole, on cells; also called HLA-A2 antigen
Assay: T2 cell HLA-A2 stabilisation assay, flow cytometry
Description: T2 cells incubated with peptides were stained for the presence of cell surface HLA-A2 antigen using flow cytometry. Fluorescent intensity of stained cells was used to determine the ability of test peptides to bind and therefore stabilise HLA-A2. […] The RBI was calculated for each peptide from the obtained mean fluorescence intensity (MFI) of T2 cells incubated with test peptide divided by the MFI obtained from cells incubated with 100% DMSO alone.
T2 cells were washed twice in serum-free RPMI and incubated overnight at 37° C. in a round-bottomed 96 well plate in 50 μl serum-free RPMI containing 160,000 cells and final concentrations of 100, 10 and 1 μM of peptide. A negative control was provided by adding dilute DMSO without peptide to 2 wells. […] After washing in phosphate buffered saline (PBS) (Oxoid, UK) containing 0.1% bovine serum albumin (BSA) (Sigma, USA), the cells were incubated on ice for 30 minutes with 20 μl of mouse antihuman HLA-A2 antibody MA2.1 (ATCC, UK). Following washing with PBS+BSA, 100 μl of a 1/100 dilution of FITC labelled goat anti-mouse IgG (Sigma, USA) was added and the cells incubated for 30 minutes on ice. The cells were washed twice using PBS+BSA, fixed in 500 μl Isoton and allowed to normalise to room temperature for 20 minutes prior to analysis by flow cytometry.

ALASCFCFFC [PAP.15]
binding result: no binding (tested: 100 µM, 10 µM and 1 µM)
